Source: PMC6205948, “Phage-Borne Depolymerases Decrease Klebsiella pneumoniae Resistance to Innate Defense Mechanisms” (Frontiers in Microbiology, 2018)

Key:
[1] = biological target: KP32gp37 (Klebsiella phage KP32) (UniProt D1L2X0); experiment: SEC-MALS; purified protein in solution, native conditions; SEC coupled to a miniDAWN TREOS MALS detector and Optilab rEX; proteins dialyzed against PBS pH 7.4
[2] = biological target: the molecule itself; experiment: as above

Sequence of KP32gp37 (D1L2X0 1-770 limits assumed): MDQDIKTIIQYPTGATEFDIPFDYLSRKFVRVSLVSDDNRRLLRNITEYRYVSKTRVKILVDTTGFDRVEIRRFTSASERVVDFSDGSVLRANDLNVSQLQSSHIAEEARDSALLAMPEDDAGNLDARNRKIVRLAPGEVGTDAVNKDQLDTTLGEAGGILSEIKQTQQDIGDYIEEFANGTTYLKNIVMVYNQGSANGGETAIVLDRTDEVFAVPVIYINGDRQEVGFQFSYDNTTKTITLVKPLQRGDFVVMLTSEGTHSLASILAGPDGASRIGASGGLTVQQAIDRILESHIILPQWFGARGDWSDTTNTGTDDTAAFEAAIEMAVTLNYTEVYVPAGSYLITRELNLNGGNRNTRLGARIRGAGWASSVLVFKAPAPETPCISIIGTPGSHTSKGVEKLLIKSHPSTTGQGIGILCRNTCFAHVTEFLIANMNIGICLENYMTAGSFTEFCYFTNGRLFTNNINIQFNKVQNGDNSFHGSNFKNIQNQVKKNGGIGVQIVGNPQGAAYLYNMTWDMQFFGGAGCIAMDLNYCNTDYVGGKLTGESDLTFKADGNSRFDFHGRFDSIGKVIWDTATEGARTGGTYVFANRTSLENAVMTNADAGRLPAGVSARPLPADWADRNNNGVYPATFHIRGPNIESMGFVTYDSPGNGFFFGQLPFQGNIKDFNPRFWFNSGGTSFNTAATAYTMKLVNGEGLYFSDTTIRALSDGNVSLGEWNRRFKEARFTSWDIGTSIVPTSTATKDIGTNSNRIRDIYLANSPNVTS

Molecule | stoichiometry N [1] | stoichiometry N [2]
KP32gp37 (from UniProt D1L2X0 1-869) (enzyme) | 3 | –
KP32gp38 (enzyme, Klebsiella phage KP32, UniProt D1L2X1 1-576, looked up, open reading frame cloned into pEXP5-CT/TOPO; runs at about 62 kDa on SDS-PAGE; The vector pEXP5-CT/TOPO adds a C-terminal His6 tag (surmised from the vector's name); also called hypothetical protein; K21 depolymerase) MLDNFNQPKGSTIGVLKDGRTIQEAFDSLPRLESFSGSTATDKLRAAITLGVSEVAIGPVEGNGGRPYEFGDVVIPYPLRIVGCGSQGINVTKGTVLKRSAGASFMFHFTGEGQAQRPMGGGLFNINLNGDTATALGDIIKVTQWSYFKANNCAFQNMAGWGIRLKDVMESNISGNLFRRLGGPSGGGILFDDVRSAVTDNVNNLHIEDNTFALMSGPWIGSTANSNPDLIWIVRNKFEFDGTPAAPNTVDSYVLDFQQLSRAFIQDNGFTHFTTERNRYVGVLRVGATAVGTIKFEDNLLFACESAGLIAGGIVVSRGNVNNQGSATTAIKQFTNTSSKLCKLERVINVQSNGNVSVGQQILPDGYINMAELPGNTRLPSEYDADGETTSVLRVPANTQVRQWSVPKMYKDGLTVTKVTVRAKGAAAGAILSLQSGSTVLSTKSIDAGVWKNYVFYVKANQLQETLQLRNTGTADVLADGMVFGKVDYIDWDFAIAPGTLAAGAKYTTPNQSYLDVAGMRVQAVSIPMFDGPTTGLQVWVEATSANGSFVVVMKNDTGSELVTTVTRCRVRAFVS | – | 3
